Source: PMC8424379 (2021)

B1: full-length Ccq1 fused to Gal4 activation domain [S. pombe] / Tpz1 fused to the Gal4 DNA binding domain [S. pombe] (parent complex)
chain 1: MSEINDFTNSIIINESDTKYEVYSEVNSSNRWIAKEDCPSPLEDVWLLKLAGHKRKLEEPLSCMRNEEPASKQREIEKFLRTDLDHSENDFLTQEVDEFPSTQQLFPIPLQNDTAFDSSEESITKSSKSSFSVLDIGLPMSALQRKMMHRLVQYFAFCIDHFCTGPSDSRIQEKIRLFIQSAHNIAKHPSLYDTEVRNPSAAESTNSHVSLDASNFSSYAENSSKFLFLQELFKNLSPSYSKTFFLFISNQFLANTLTQWLKSQNIDAELWAEEDAKTSQHPAIWICVSKKAPSASHFLQSCPDLSATIFYDIEAYMSVTSSLPSIQSLVLRLIHLGSIEHAIKCFQSSYNASFLVNIVGVVATLSSSSEENSEASNLSTLFEKSGNFEEILGSESHSSITEKTRDIAKNVATWLKNGENFSSWPLPPLMDLASLSVAEPRDSQPSVSQVNDTFVKSSDSTFPSSQSMQSPSKLHSLTSNATDLLSSSSLKKNFFSQQEADEVELSNNYDLQGAAVQYLQRRLRMVEDELHEAINSKNVQQSRSEELEQQISKLTDNLQEYRNTVRELKLDLEKSKKKNEDLSKLEVEKVEEIANLKKELTHLAKQQEFGFKYVQEFSNEDLQGKLIEANEKNYKLTQLLKTQKEDADFITNQYQNASTFAAEQSKEVAKLQAECKRLQAINSKVMEEVKVYNDSRVEALLAKVSSLEETLKILEQKSLPKFTPHNQSPRIIDSN
chain 2: MSNCLKHPWLENGLLNLIKNADVLPIRVFKCQPLQIFEYIRYEHPIRCKLSDTEFYIEAEFSSQSISDLNNFTEKRITSLRGGIVTLGNFLIHLIPSQSGIIPWIQVESFNFQGCEGAVFGNPKAITTSALFNALLQSPYLAALANEFNRSIKEGSSYQEASLSQQEKPNDNTSNSRDIKNNIQFHWKNMTSLSIEECIIPKGQQLILEKESEENTTHGIYLEERKMAQGLHNSVSETPEVKQEDNDEDLDAYSWSSSTDSAGEIPSLPTNRKILEKIAEKPPPFESPLEDDETPDQTNEHEANQVNVSQLPLNPRGSGISGRPVESTEQLNSSLTIERSQSIQSTDSKQRVETQSHRRSKIEIFDAQDELFDRSICTTIDDSTGKLLNAEETPIKTGDLHSTSASSVISCTPPAINFTSDICNEQIELEYKRKPIPDYDFMKGLETTLQELYVEHQSKKRRLELFQLTNNHQKNSEACEMCRLGLPHGSFFELLRDWKKIEEFRNKS
B2: Ccq1_(496–583), Raf2-binding motif of Ccq1, fused to Gal4 activation domain [S. pombe] / Raf2 fused to Gal4 DNA-binding domain [S. pombe] (parent complex)
chain 1: SQQEADEVELSNNYDLQGAAVQYLQRRLRMVEDELHEAINSKNVQQSRSEELEQQISKLTDNLQEYRNTVRELKLDLEKSKKKNEDLS
chain 2: MPPVRAEKKRKTDLIEQVCVTNKAGELVDLEDVLEYGPYSLTGILSSEKDEQEPLFDESIVLGYSIKISPVWTYNLKDVPEKETMSIWIVTPQRRYGILSPSSEYKAIYEQISEKNRLFYLIKTKFKDDMISGTLEDYDNYIEVLKEKLELPSCFQAILLVQKHIRFLLTQMVATSSLHVWSESPFFIRIRSSYEHLILQINKNIYNARQERKKSKLSSNNPSDNNTTMKSSLNQALTLINLPEQPFSISSPTATPQLGVVKRTSPLRFPLNDIWLSGLRIVDPNIESISLWKRIQVSTSPKHQRYISLQEVCSVIAQQLQITNLEALNKLSSHGETLLQIMHTAFTWRGTKLFNDIKHAIGFRSSVQQARSQFRGYCYDYLFMHCNNGEKTSLHLLRTLICMKLDFSNAQLAAKILFHFLLFDIGSGLSGSDYTYEQYINHSAVAFSFTEEIFEKNFVTVLPDFVKLFSISFGYWPAFSFYDELLKLLRNKYPKVYSSTPNLCDQVWLDRTNLFPCNRSTRSTLPYRPTKLLDLASASSCLSKKETDFKQDTGLYSYNLEKVEALKVSPDLQTGIWSCPVQNCLYFAVCDNPYKPSQVIYDHLLGHVDSKFIFKTPSNSVRSFTNKLEHIMYNIN
B3: full-length Ccq1 fused to Gal4 activation domain [S. pombe] / Raf2 fused to Gal4 DNA-binding domain [S. pombe] (parent complex)
chain 1: B1 chain 1
chain 2: B2 chain 2
B4: full-length Ccq1 fused to Gal4 activation domain [S. pombe] / Clr3 fused to the Gal4 DNA binding domain [S. pombe] (parent complex)
chain 1: B1 chain 1
chain 2: MLASNSDGASTSVKPSDDAVNTVTPWSILLTNNKPMSGSENTLNNESHEMSQILKKSGLCYDPRMRFHATLSEVDDHPEDPRRVLRVFEAIKKAGYVSNVPSPSDVFLRIPAREATLEELLQVHSQEMYDRVTNTEKMSHEDLANLEKISDSLYYNNESAFCARLACGSAIETCTAVVTGQVKNAFAVVRPPGHHAEPHKPGGFCLFNNVSVTARSMLQRFPDKIKRVLIVDWDIHHGNGTQMAFYDDPNVLYVSLHRYENGRFYPGTNYGCAENCGEGPGLGRTVNIPWSCAGMGDGDYIYAFQRVVMPVAYEFDPDLVIVSCGFDAAAGDHIGQFLLTPAAYAHMTQMLMGLADGKVFISLEGGYNLDSISTSALAVAQSLLGIPPGRLHTTYACPQAVATINHVTKIQSQYWRCMRPKHFDANPKDAHVDRLHDVIRTYQAKKLFEDWKITNMPILRDSVSNVFNNQVLCSSNFFQKDNLLVIVHESPRVLGNGTSETNVLNLNDSLLVDPVSLYVEWAMQQDWGLIDINIPEVVTDGENAPVDILSEVKELCLYVWDNYVELSISKNIFFIGGGKAVHGLVNLASSRNVSDRVKCMVNFLGTEPLVGLKTASEEDLPTWYYRHSLVFVSSSNECWKKAKRAKRRYGRLMQSEHTETSDMMEQHYRAVTQYLLHLLQKARPTSQ

Variants of: B1
Experiment: yeast two-hybrid (β-galactosidase); Tpz1 fused to the Gal4 DNA binding domain; Ccq1 fused to Gal4 activation domain; parent: 94; read off a plot

In order of falling response:
1. chain 1 L511R  ~95
2. chain 1 Y518R  ~91
3. chain 1 L523R  ~90
4. chain 1 L519R  ~83
5. chain 1 V516R  ~81

Variants of: B2
Experiment: yeast two-hybrid (β-galactosidase); Raf2 fused to Gal4 DNA-binding domain; Ccq1 fused to Gal4 activation domain; read off a plot

In order of falling response:
1. chain 1 H36R  ~94
2. chain 1 M30R  ~92
3. chain 1 I39R  ~90
4. chain 1 Y14R  ~88
5. chain 1 L10R  ~87
6. chain 1 L63R  ~85
7. chain 1 V8R  ~82
8. chain 1 V44R  ~81
9. chain 1 V31R  ~80
10. chain 1 Y66R  ~79
11. chain 1 L35R  ~74
12. chain 1 L52R  ~63
13. chain 1 L28R  ~3
14. chain 1 L16R  ~3
15. chain 1 Y23R  ~3
16. chain 1 V21R  ~2.8
17. chain 1 L24R  ~2.5

Variants of: B3
Experiment: yeast two-hybrid (β-galactosidase); Raf2 fused to Gal4 DNA-binding domain; Ccq1 fused to Gal4 activation domain; parent: 97; read off a plot

In order of falling response:
1. chain 1 M525R  ~110
2. chain 1 V526R  ~110
3. chain 1 L523R  ~51
4. chain 1 L519R  ~4.8
5. chain 1 Y518R  ~4.5
6. chain 1 L511R  ~3.8
7. chain 1 V516R  ~3.8

Variants of: B4
Experiment: yeast two-hybrid (β-galactosidase); Clr3 fused to the Gal4 DNA binding domain; Ccq1 fused to Gal4 activation domain; parent: 97; read off a plot

In order of falling response:
1. chain 1 L523R  ~94
2. chain 1 L519R  ~89
3. chain 1 L511R  ~88
4. chain 1 V516R  ~82
5. chain 1 Y518R  ~80
